Like-named read-outs stand apart in the source and are kept apart here.
Columns and labels:
[1] = target: T1, tau peptide 282-311; assay: ELISA
T1 peptide: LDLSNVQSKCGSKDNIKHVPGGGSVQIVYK

[2] = target: T2, full length physiological tau 2N4R (UniProt P10636 1-758); assay: SPR; IgG4
[3] = target: T3, misdisordered truncated tau 151-391/4R (UniProt P10636 468-708); assay: SPR; IgG4
[4] = target: T4, tau peptide 314-342; assay: ELISA; IgG4
T4 peptide: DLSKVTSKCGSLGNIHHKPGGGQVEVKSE

[5] = target: T5, tau peptide 256-285; assay: ELISA; IgG4
T5 peptide: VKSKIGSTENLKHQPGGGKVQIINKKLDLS

[6] = target: T6, tau peptide 352-380; assay: ELISA; IgG4
T6 peptide: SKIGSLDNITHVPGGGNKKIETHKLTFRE

[7] = target: T4, tau peptide 314-342; assay: ELISA
[8] = target: T5, tau peptide 256-285; assay: ELISA
[9] = target: T6, tau peptide 352-380; assay: ELISA
[10] = target: T1, tau peptide 282-311; assay: ELISA
[11] = target: T2, full length physiological tau 2N4R; assay: ELISA; IgG1
[12] = target: T3, misdisordered truncated tau 151-391/4R; assay: ELISA; IgG1
[13] = target: T2, full length physiological tau 2N4R; assay: SPR; IgG1
[14] = target: T3, misdisordered truncated tau 151-391/4R; assay: SPR; IgG1
[15] = target: T3, misdisordered truncated tau 151-391/4R; assay: SPR
[16] = target: T4, tau peptide 314-342; assay: ELISA
[17] = target: T5, tau peptide 256-285; assay: ELISA
[18] = target: T6, tau peptide 352-380; assay: ELISA
[19] = target: T2, full length physiological tau 2N4R; assay: SPR
[20] = target: T3, misdisordered truncated tau 151-391/4R; assay: SPR; remark: listed apart in the source
[21] = target: T4, tau peptide 314-342; assay: ELISA
[22] = target: T5, tau peptide 256-285; assay: ELISA
[23] = target: T6, tau peptide 352-380; assay: ELISA
[24] = target: T1, tau peptide 282-311; assay: ELISA
[25] = target: T3, misdisordered truncated tau 151-391/4R; assay: SPR; remark: listed apart in the source
[26] = target: T3, misdisordered truncated tau 151-391/4R; assay: ELISA
[27] = target: T3, misdisordered truncated tau 151-391/4R; assay: SPR; remark: listed apart in the source

T3 sequence (P10636 468-708): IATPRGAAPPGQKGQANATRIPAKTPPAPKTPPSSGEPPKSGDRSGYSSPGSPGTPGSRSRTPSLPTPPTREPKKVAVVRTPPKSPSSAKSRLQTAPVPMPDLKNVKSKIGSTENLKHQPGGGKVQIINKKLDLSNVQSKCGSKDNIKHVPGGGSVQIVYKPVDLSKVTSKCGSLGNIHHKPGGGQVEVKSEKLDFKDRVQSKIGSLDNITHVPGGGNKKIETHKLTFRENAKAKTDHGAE
T2 sequence (P10636 other isoform, or with tags, fused parts or gaps): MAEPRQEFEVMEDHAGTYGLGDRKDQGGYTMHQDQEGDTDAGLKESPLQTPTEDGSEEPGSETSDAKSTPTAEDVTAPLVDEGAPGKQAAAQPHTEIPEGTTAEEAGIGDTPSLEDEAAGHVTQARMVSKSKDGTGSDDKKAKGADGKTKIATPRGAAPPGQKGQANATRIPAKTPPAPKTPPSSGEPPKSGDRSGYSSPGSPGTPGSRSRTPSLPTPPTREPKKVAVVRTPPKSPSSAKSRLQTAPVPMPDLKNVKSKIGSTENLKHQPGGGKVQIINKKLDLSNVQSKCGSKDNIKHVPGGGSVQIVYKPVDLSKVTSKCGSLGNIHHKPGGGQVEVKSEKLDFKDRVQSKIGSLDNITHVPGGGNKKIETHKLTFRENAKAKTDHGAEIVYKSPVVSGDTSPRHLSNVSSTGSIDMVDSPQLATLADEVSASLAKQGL

B1: AX016-IgG4, humanized DC8E8 RHD/RKB, IgG4 isotype (antibody)
heavy: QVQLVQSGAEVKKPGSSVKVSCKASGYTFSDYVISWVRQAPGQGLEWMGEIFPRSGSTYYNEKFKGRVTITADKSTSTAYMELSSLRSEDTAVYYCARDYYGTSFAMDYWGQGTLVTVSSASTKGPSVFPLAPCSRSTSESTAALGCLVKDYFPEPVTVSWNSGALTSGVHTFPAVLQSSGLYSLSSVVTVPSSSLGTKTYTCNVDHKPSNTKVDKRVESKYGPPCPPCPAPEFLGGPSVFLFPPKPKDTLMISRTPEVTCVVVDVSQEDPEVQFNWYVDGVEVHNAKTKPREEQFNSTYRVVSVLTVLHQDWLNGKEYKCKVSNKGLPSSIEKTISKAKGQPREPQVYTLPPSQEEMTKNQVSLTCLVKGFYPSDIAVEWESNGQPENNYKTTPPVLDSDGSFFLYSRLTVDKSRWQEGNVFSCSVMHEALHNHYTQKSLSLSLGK
light: DIVMSQSPLSLPVTPGEPASISCKSSQSLLNSRTRKNYLAWYLQKPGQSPQLLIYWASTRESGVPDRFTGSGSGTDFTLKISRVEAEDVGVYYCKQSFYLRTFGQGTKVEIKRTVAAPSVFIFPPSDEQLKSGTASVVCLLNNFYPREAKVQWKVDNALQSGNSQESVTEQDSKDSTYSLSSTLTLSKADYEKHKVYACEVTHQGLSSPVTKSFNRGEC
EC50 [1]: 0.00756 mg/L
Ka [2]: 6.6e+07 M⁻¹
Ka [3]: 7.2e+08 M⁻¹
EC50 [4]: 0.0153 mg/L
EC50 [5]: 0.0139 mg/L
EC50 [6]: 0.085 mg/L

B2: AX004-IgG4, humanized DC8E8 RHD/RKA, IgG4 isotype (antibody)
heavy: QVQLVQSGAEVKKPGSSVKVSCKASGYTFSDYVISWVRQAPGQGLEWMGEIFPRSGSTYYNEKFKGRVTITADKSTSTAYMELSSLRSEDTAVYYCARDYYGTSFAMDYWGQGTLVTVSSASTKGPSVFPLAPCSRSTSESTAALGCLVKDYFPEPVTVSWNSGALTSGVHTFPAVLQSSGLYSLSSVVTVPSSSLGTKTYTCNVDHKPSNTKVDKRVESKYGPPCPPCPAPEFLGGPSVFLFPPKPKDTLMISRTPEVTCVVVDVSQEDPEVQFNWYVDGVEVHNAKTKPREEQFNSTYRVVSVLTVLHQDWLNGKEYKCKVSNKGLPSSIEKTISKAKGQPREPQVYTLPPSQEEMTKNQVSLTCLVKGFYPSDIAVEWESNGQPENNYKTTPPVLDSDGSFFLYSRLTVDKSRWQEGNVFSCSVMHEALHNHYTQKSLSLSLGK
light: DIVMTQSPLSLPVTPGEPASISCKSSQSLLNSRTRKNYLAWYLQKPGQSPQLLIYWASTRESGVPDRFTGSGSGTDFTLKISRVEAEDVGVYYCKQSFYLRTFGQGTKVEIKRTVAAPSVFIFPPSDEQLKSGTASVVCLLNNFYPREAKVQWKVDNALQSGNSQESVTEQDSKDSTYSLSSTLTLSKADYEKHKVYACEVTHQGLSSPVTKSFNRGEC
EC50 [1]: 0.0067 mg/L
Ka [2]: 6.5e+07 M⁻¹
Ka [3]: 7.75e+08 M⁻¹
EC50 [4]: 0.013 mg/L
EC50 [5]: 0.0132 mg/L
EC50 [6]: 0.0814 mg/L

B3: AX017-IgG4, humanized DC8E8 RHE/RKB, IgG4 isotype (antibody)
heavy: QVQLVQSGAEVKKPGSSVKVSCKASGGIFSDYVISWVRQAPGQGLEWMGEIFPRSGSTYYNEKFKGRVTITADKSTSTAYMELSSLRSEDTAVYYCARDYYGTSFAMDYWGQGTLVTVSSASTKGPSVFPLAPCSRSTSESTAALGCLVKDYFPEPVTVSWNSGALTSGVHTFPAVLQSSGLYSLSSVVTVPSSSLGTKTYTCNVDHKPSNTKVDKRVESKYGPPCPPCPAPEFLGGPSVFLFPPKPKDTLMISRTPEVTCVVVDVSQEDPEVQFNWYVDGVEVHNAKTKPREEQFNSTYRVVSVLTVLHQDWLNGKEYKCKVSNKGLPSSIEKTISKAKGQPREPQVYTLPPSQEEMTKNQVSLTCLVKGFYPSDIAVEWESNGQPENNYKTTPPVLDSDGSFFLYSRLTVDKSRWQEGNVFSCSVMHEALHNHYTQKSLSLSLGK
light: DIVMSQSPLSLPVTPGEPASISCKSSQSLLNSRTRKNYLAWYLQKPGQSPQLLIYWASTRESGVPDRFTGSGSGTDFTLKISRVEAEDVGVYYCKQSFYLRTFGQGTKVEIKRTVAAPSVFIFPPSDEQLKSGTASVVCLLNNFYPREAKVQWKVDNALQSGNSQESVTEQDSKDSTYSLSSTLTLSKADYEKHKVYACEVTHQGLSSPVTKSFNRGEC
EC50 [1]: 0.00901 mg/L
EC50 [4]: 0.0726 mg/L
EC50 [6]: 0.385 mg/L

B4: AX016-IgG1, humanized DC8E8 RHD/RKB, IgG1 isotype (antibody)
heavy: not shown
light: DIVMSQSPLSLPVTPGEPASISCKSSQSLLNSRTRKNYLAWYLQKPGQSPQLLIYWASTRESGVPDRFTGSGSGTDFTLKISRVEAEDVGVYYCKQSFYLRTFGQGTKVEIKRTVAAPSVFIFPPSDEQLKSGTASVVCLLNNFYPREAKVQWKVDNALQSGNSQESVTEQDSKDSTYSLSSTLTLSKADYEKHKVYACEVTHQGLSSPVTKSFNRGEC
EC50 [7]: 0.0122 mg/L
EC50 [8]: 0.0117 mg/L
EC50 [9]: 0.0566 mg/L
EC50 [10]: 0.00647 mg/L
EC50 [11]: 0.0513 mg/L
EC50 [12]: 0.0137 mg/L
Ka [13]: 1.9e+08 M⁻¹
Ka [14]: 1.6e+09 M⁻¹

B5: AX005-IgG1, humanized DC8E8 RHE/RKA, IgG1 isotype (antibody)
heavy: not shown
light: DIVMTQSPLSLPVTPGEPASISCKSSQSLLNSRTRKNYLAWYLQKPGQSPQLLIYWASTRESGVPDRFTGSGSGTDFTLKISRVEAEDVGVYYCKQSFYLRTFGQGTKVEIKRTVAAPSVFIFPPSDEQLKSGTASVVCLLNNFYPREAKVQWKVDNALQSGNSQESVTEQDSKDSTYSLSSTLTLSKADYEKHKVYACEVTHQGLSSPVTKSFNRGEC
EC50 [7]: 0.0562 mg/L
EC50 [9]: 0.579 mg/L
EC50 [10]: 0.0068 mg/L

B6: AX004-IgG1, humanized DC8E8 RHD/RKA, IgG1 isotype (antibody)
heavy: not shown
light: DIVMTQSPLSLPVTPGEPASISCKSSQSLLNSRTRKNYLAWYLQKPGQSPQLLIYWASTRESGVPDRFTGSGSGTDFTLKISRVEAEDVGVYYCKQSFYLRTFGQGTKVEIKRTVAAPSVFIFPPSDEQLKSGTASVVCLLNNFYPREAKVQWKVDNALQSGNSQESVTEQDSKDSTYSLSSTLTLSKADYEKHKVYACEVTHQGLSSPVTKSFNRGEC
EC50 [7]: 0.0118 mg/L
EC50 [8]: 0.0121 mg/L
EC50 [9]: 0.0587 mg/L
EC50 [10]: 0.00598 mg/L
EC50 [11]: 0.0532 mg/L
EC50 [12]: 0.0147 mg/L
Ka [13]: 1.1e+08 M⁻¹
Ka [14]: 1.6e+09 M⁻¹

B7: AX017-IgG1, humanized DC8E8 RHE/RKB, IgG1 isotype (antibody)
heavy: not shown
light: DIVMSQSPLSLPVTPGEPASISCKSSQSLLNSRTRKNYLAWYLQKPGQSPQLLIYWASTRESGVPDRFTGSGSGTDFTLKISRVEAEDVGVYYCKQSFYLRTFGQGTKVEIKRTVAAPSVFIFPPSDEQLKSGTASVVCLLNNFYPREAKVQWKVDNALQSGNSQESVTEQDSKDSTYSLSSTLTLSKADYEKHKVYACEVTHQGLSSPVTKSFNRGEC
EC50 [7]: 0.096 mg/L
EC50 [9]: 0.883 mg/L
EC50 [10]: 0.00766 mg/L

B8: AX005-IgG4, humanized DC8E8 RHE/RKA, IgG4 isotype (antibody)
heavy: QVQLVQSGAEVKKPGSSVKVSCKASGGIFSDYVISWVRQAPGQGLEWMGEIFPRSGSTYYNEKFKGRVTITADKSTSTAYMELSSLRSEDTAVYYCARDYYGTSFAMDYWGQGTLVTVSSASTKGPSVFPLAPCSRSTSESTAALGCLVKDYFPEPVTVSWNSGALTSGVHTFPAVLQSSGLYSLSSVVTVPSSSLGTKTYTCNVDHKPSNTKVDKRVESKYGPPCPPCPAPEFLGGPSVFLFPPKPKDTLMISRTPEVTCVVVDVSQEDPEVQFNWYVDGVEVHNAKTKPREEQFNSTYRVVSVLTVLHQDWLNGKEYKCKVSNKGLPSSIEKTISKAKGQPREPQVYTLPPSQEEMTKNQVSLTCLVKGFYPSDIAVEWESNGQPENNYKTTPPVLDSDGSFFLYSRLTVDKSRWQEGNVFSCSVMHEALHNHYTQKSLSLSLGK
light: DIVMTQSPLSLPVTPGEPASISCKSSQSLLNSRTRKNYLAWYLQKPGQSPQLLIYWASTRESGVPDRFTGSGSGTDFTLKISRVEAEDVGVYYCKQSFYLRTFGQGTKVEIKRTVAAPSVFIFPPSDEQLKSGTASVVCLLNNFYPREAKVQWKVDNALQSGNSQESVTEQDSKDSTYSLSSTLTLSKADYEKHKVYACEVTHQGLSSPVTKSFNRGEC
EC50 [1]: 0.00898 mg/L
EC50 [4]: 0.0745 mg/L
EC50 [6]: 0.397 mg/L

B9: chimeric DC8E8 (isotype not stated where tested) (antibody)
VH: QVQLQQSGPELVKPGTSVKMPCKASGYIFTDYVISWVKQRTGQGLEWIGEIFPRSGSTYYNEKFKGKATLTADKSSNTAYMQLSSVTSEDSAVYFCARDYYGTSFAMDYWGQGTSVTVSS
light: DIVMSQSPSSLAVSAGEKVTMSCKSSQSLLNSRTRKNYLAWYQQKPGQSPKLLIYWASTRESGVPDRFTGSGSGTDFTLTISSVQAEDLAVYYCKQSFYLRTFGGGTKLDIKRTVAAPSVFIFPPSDEQLKSGTASVVCLLNNFYPREAKVQWKVDNALQSGNSQESVTEQDSKDSTYSLSSTLTLSKADYEKHKVYACEVTHQGLSSPVTKSFNRGEC
Kd [15]: 0.0104 µM
EC50 [16]: 0.0265 mg/L
EC50 [17]: 0.0297 mg/L
EC50 [18]: 0.0814 mg/L
EC50 [1]: 0.00852 mg/L
Ka [19]: 4.4e+07 M⁻¹
Ka [20]: 4.2e+08 M⁻¹
EC50 [21]: 0.0173 mg/L
EC50 [22]: 0.0212 mg/L
EC50 [23]: 0.087 mg/L
EC50 [24]: 0.00731 mg/L
Kd [25]: 0.0104 µM

B10: chimeric DC8E8, human IgG4/kappa (antibody)
heavy: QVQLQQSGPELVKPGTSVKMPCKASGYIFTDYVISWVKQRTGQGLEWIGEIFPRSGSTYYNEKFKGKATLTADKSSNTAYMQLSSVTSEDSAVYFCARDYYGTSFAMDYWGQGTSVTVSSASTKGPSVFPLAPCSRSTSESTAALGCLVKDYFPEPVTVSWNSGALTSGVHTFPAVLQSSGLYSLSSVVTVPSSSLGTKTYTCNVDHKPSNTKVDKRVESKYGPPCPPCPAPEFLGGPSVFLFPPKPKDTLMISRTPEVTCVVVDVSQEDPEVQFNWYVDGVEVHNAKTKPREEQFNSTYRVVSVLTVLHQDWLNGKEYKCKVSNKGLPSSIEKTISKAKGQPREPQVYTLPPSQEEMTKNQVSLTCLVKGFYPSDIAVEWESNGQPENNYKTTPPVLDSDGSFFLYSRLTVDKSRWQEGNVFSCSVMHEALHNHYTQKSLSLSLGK
light: DIVMSQSPSSLAVSAGEKVTMSCKSSQSLLNSRTRKNYLAWYQQKPGQSPKLLIYWASTRESGVPDRFTGSGSGTDFTLTISSVQAEDLAVYYCKQSFYLRTFGGGTKLDIKRTVAAPSVFIFPPSDEQLKSGTASVVCLLNNFYPREAKVQWKVDNALQSGNSQESVTEQDSKDSTYSLSSTLTLSKADYEKHKVYACEVTHQGLSSPVTKSFNRGEC
EC50 [26]: 0.0507 mg/L

B11: chimeric DC8E8, human IgG1/kappa (antibody)
heavy: not shown
light: DIVMSQSPSSLAVSAGEKVTMSCKSSQSLLNSRTRKNYLAWYQQKPGQSPKLLIYWASTRESGVPDRFTGSGSGTDFTLTISSVQAEDLAVYYCKQSFYLRTFGGGTKLDIKRTVAAPSVFIFPPSDEQLKSGTASVVCLLNNFYPREAKVQWKVDNALQSGNSQESVTEQDSKDSTYSLSSTLTLSKADYEKHKVYACEVTHQGLSSPVTKSFNRGEC
EC50 [26]: 0.0214 mg/L

B12: mouse monoclonal antibody DC8E8 (antibody)
heavy: QVQLQQSGPELVKPGTSVKMPCKASGYIFTDYVISWVKQRTGQGLEWIGEIFPRSGSTYYNEKFKGKATLTADKSSNTAYMQLSSVTSEDSAVYFCARDYYGTSFAMDYWGQGTSVTVSSAKTTPPSVYPLAPGSAAQTNSMVTLGCLVKGYFPEPVTVTWNSGSLSSGVHTFPAVLQSDLYTLSSSVTVPSSTWPSQTVTCNVAHPASSTKVDKKIVPRDCGCKPCICTVPEVSSVFIFPPKPKDVLTITLTPKVTCVVVDISKDDPEVQFSWFVDDVEVHTAQTKPREEQINSTFRSVSELPIMHQDWLNGKEFKCRVNSAAFPAPIEKTISKTKGRPKAPQVYTIPPPKEQMAKDKVSLTCMITNFFPEDITVEWQWNGQPAENYKNTQPIMDTDGSYFVYSKLNVQKSNWEAGNTFTCSVLHEGLHNHHTEKSLSHSPGK
VL: DIVMSQSPSSLAVSAGEKVTMSCKSSQSLLNSRTRKNYLAWYQQKPGQSPKLLIYWASTRESGVPDRFTGSGSGTDFTLTISSVQAEDLAVYYCKQSFYLRTFGGGTKLDIK
Kd [27]: 0.0104 µM
Ka [19]: 3.9e+07 M⁻¹
Ka [20]: 1.9e+08 M⁻¹
EC50 [21]: 0.039 mg/L
EC50 [22]: 0.0433 mg/L
EC50 [23]: 0.213 mg/L
EC50 [24]: 0.0118 mg/L
Kd [25]: 0.0104 µM
EC50 [26]: 0.0448 mg/L

Reference: patent US20180142007A1 (published 2018)
